From paper PMC8991199 (2022)

B1: S100A5 (natural protein)
chain: METPLEKALTTMVTTFHKYSGREGSKLTLSRKELKELIKKELCLGEMKESSIDDLMKSLDKNSDQEIDFKEYSVFLTMLCMAYNDFFLEDNK

Columns and labels:
[1] = target: fIF, fluorescently labelled H14 foldamer IF (β-peptidic hexamer: β3-amino acids with proteinogenic side chains (I, F) in positions 2 and 5, ACHC (trans-2-aminocyclohexancarboxylic acid) residues; 5(6)-carboxyfluorescein on the ε-amino group of …); test: FP
[2] = target: fWL, fluorescently labelled H14 foldamer WL (β-peptidic hexamer: β3-amino acids with proteinogenic side chains (W, L) in positions 2 and 5, ACHC (trans-2-aminocyclohexancarboxylic acid) residues; 5(6)-carboxyfluorescein on the ε-amino group of …); test: FP
S100A5 [3] = target: B1; test: FP; competition against fIF
S100A5 [4] = target: B1; test: FP; competition against fWL

Kd [1] | Kd [2] | Kd (S100A5 [3]) | Kd (S100A5 [4]) | Binder
32 µM | 7.9 µM | – | – | B1
– | – | 2.4 µM | 4.9 µM | TRTKIDWNKILS [TRTK12 peptide]
